# Experimental data: US10363306B2, “Cytokines and neuroantigens for treatment of immune disorders” (East Carolina University, priority 2009, dated 2019)
# B1: IFNβ-NAg: Fusion protein: rat IFNβ, enterokinase linker (GDDDDKG), encephalitogenic 73-87 peptide of guinea pig MBP, C-terminal 6-histidine tag (protein)
# chain: IDYKQLQFRQSTSIRTCQKLLRQLNGRLNLSYRTDFKIPMEVMHPSQMEKSYTAFAIQVMLQNVFLVFRSNFSSTGWNETIVESLLDELHQQTELLEIILKEKQEERLTWVTSTTTLGLKSYYWRVQRYLKDKKYNSYAWMVVRAEVFRNFSIILRLNRNFQNGDDDDKGPQKSQRSQDENPVVHHHHHH
# Key:
# RsL.11T = assay: Anti-proliferative/killing activity on RsL.11T T cells; format: cell-based, rat; conditions: baculovirus supernatants
# Experimental: (§1) FIG. 1. The IFNβ-NAg his-tagged fusion protein was biologically active and was purified on nickel resins. (A) To assess whether IFNβ-NAg induced class I MHC expression, thymocytes (5×10^6/ml in complete RPMI) were cultured with or without IFNβ-NAg for 2 days and then were stained with B5 (anti-MHC-I), OX18 (anti-MHC-I), R73 (anti-TCRβ), or OX81 (anti-IL4; isotype control) and were analyzed by flow cytometry. (B) To assess IFNβ-mediated anti-proliferative activity, supernatants from two independently derived IFNβ-NAg expression systems as well as supernatants from several control expression systems were added at designated titrations (x-axis) to IL-2 stimulated cultures of BN-GP T cells. (C) To assess the specificity of anti-proliferative activity, baculovirus supernatants containing IFNβ-NAg were added at designated titrations to cultures of rat (R1T, BN-GP, RsL.11T, RsL.11, or Conal.8D9) or mouse (CTLL) T cells. Proliferative assays (B & C) were pulsed with [^3H]thymidine on the second day of a 3-day culture. (D) Shown is a representative SDS-PAGE analysis of purified IFNβ-NAg. […]
# (§2) Cultures were pulsed with 1 uCi of [^3H]thymidine (6.7 Ci/mmol, New England Nuclear) during the last day of a 3 or 4 day culture. […] [^3H]thymidine incorporation into DNA was measured by use of a Wallac 1450 Microbeta Plus liquid scintillation counter. […]
# CTLL T cells = assay: Anti-proliferative/killing activity on CTLL T cells; format: cell-based, mouse; conditions: murine CTLL T cells; baculovirus supernatants
# Experimental: as §1, §2
# EAE in SJL mice = assay: Treatment of passively induced EAE and second active challenge in SJL mice; format: in vivo; conditions: murine IFNβ/PLP139-151 fusion protein; 2 nanomoles s.c. days 12, 14, 16
# Experimental: FIG. 8. […] Shown are the time-courses of EAE (A) and the percent maximal weight (B) from example 4.
# On day 0, mice were passively challenged with activated, encephalitogenic T cells specific for the PLP139-151 epitope. […] On day 12, three groups of mice were matched for clinical severity. On days 12, 14, and 16, mice were treated with the IFNβ-NAg fusion protein (2 nanomoles), a synthetic PLP139-151 peptide (2 nanomoles), or saline. Treatments were given by subcutaneous injections of proteins or peptides in saline. On day 24, mice were actively challenged to induce a second bout of EAE by challenge with 200 micrograms of PLP139-151 in Complete Freund's Adjuvant. […] Furthermore, the fusion protein promoted a tolerogenic effect that ameliorated the subsequent bout of EAE (FIG. 8A). These observations support the concept that the IFNβ-NAg fusion protein may have clinical activities conducive for the treatment of autoimmune demyelinating disease of the central nervous system.
# Conal.8D9 = assay: Anti-proliferative/killing activity on Conal.8D9 T cells; format: cell-based, rat; conditions: baculovirus supernatants
# Experimental: as §1, §2
# RsL.11 clone = assay: Anti-proliferative/killing activity on RsL.11 T cells; format: cell-based, rat; conditions: baculovirus supernatants
# Experimental: as §1, §2
# thymocytes = assay: Induction of class I MHC expression on thymocytes (flow cytometry); format: cell-based; conditions: 2 days of culture
# Experimental: FIG. 1. The IFNβ-NAg his-tagged fusion protein was biologically active and was purified on nickel resins. (A) To assess whether IFNβ-NAg induced class I MHC expression, thymocytes (5×10^6/ml in complete RPMI) were cultured with or without IFNβ-NAg for 2 days and then were stained with B5 (anti-MHC-I), OX18 (anti-MHC-I), R73 (anti-TCRβ), or OX81 (anti-IL4; isotype control) and were analyzed by flow cytometry. (B) To assess IFNβ-mediated anti-proliferative activity, supernatants from two independently derived IFNβ-NAg expression systems as well as supernatants from several control expression systems were added at designated titrations (x-axis) to IL-2 stimulated cultures of BN-GP T cells. (C) To assess the specificity of anti-proliferative activity, baculovirus supernatants containing IFNβ-NAg were added at designated titrations to cultures of rat (R1T, BN-GP, RsL.11T, RsL.11, or Conal.8D9) or mouse (CTLL) T cells. Proliferative assays (B & C) were pulsed with [^3H]thymidine on the second day of a 3-day culture. (D) Shown is a representative SDS-PAGE analysis of purified IFNβ-NAg.
# T cells were incubated with a 1/20 titration of a concentrated supernatant containing the designated mAb for 45 minutes at 4° C. […] Data were acquired with a Becton Dickinson FACScan flow cytometer and were analyzed with the CELLQuest software program. […]
# R1T = assay: Anti-proliferative/killing activity on R1T T cells; format: cell-based, rat; conditions: baculovirus supernatants
# Experimental: as §1, §2
molecule,measurement,setting,value
B1,cell death of T cell line,RsL.11T,directly caused the death
same,cell death of T cell line,CTLL T cells,did not kill
same,EAE-associated cachexia (percent maximal weight),EAE in SJL mice,acutely reversed EAE-associated cachexia
same,cell death of T cell line,Conal.8D9,directly caused the death
same,cell death of T cell line,RsL.11 clone,directly caused the death
same,expression of MHC-I on immature thymocytes,thymocytes; 1% titration of baculovirus expression supernatant,induced the expression of MHC-I
same,TCRβ expression,thymocytes; baculovirus expression supernatant,did not affect TCRβ expression
same,cell death of T cell line,R1T,did not kill
